These results are taken from patent US20260183373.

B1: endothelin-converting enzyme 2 (ECE2) (protein)
chain: GVQYHRDPSHSTCLTEACIRVAGKILESLDRGVSPCEDFYQFSCGGWIRRNPLPDGRSRWNTFNSLWDQNQAILKHLLENTTFNSSSEAEQKTQRFYLSCLQVERIEELGAQPLRDLIEKIGGWNITGPWDQDNFMEVLKAVAGTYRATPFFTVYISADSKSSNSNVIQVDQSGLFLPSRDYYLNRTANEKVLTAYLDYMEELGMLLGGRPTSTREQMQQVLELEIQLANITVPQDQRRDEEKIYHKMSISELQALAPSMDWLEFLSFLLSPLELSDSEPVVVYGMDYLQQVSELINRTEPSILNNYLIWNLVQKTTSSLDRRFESAQEKLLETLYGTKKSCVPRWQTCISNTDDALGFALGSLFVKATFDRQSKEIAEGMISEIRTAFEEALGQLVWMDEKTRQAAKEKADAIYDMIGFPDFILEPKELDDVYDGYEISEDSFFQNMLNLYNFSAKVMADQLRKPPSRDQWSMTPQTVNAYYLPTKNEIVFPAGILQAPFYARNHPKALNFGGIGVVMGHELTHAFDDQGREYDKEGNLRPWWQNESLAAFRNHTACMEEQYNQYQVNGERLNGRQTLGENIADNGGLKAAYNAYKAWLRKHGEEQQLPAVGLTNHQLFFVGFAQVWCSVRTPESSHEGLVTDPHSPARFRVLGTLSNSRDFLRHFGCPVGSPMNPGQLCEVW
In the case of B1, the “Aβ cleavage (ELISA-based assay of intact Aβ)” value was “ECE2 and ACE were completely inactive on both Aβ isoforms” with Aβ(1-40), P05067; “ECE2 and ACE were completely inactive on both Aβ isoforms” with Aβ(1-42), P05067.

B2: angiotensin-converting enzyme (ACE) (protein)
chain: LDPGLQPGNFSADEAGAQLFAQSYNSSAEQVLFQSVAASWAHDTNITAENARRQEEAALLSQEFAEAWGQKAKELYEPIWQNFTDPQLRRIIGAVRTLGSANLPLAKRQQYNALLSNMSRIYSTAKVCLPNKTATCWSLDPDLTNILASSRSYAMLLFAWEGWHNAAGIPLKPLYEDFTALSNEAYKQDGFTDTGAYWRSWYNSPTFEDDLEHLYQQLEPLYLNLHAFVRRALHRRYGDRYINLRGPIPAHLLGDMWAQSWENIYDMVVPFPDKPNLDVTSTMLQQGWNATHMFRVAEEFFTSLELSPMPPEFWEGSMLEKPADGREVVCHASAWDFYNRKDFRIKQCTRVTMDQLSTVHHEMGHIQYYLQYKDLPVSLRRGANPGFHEAIGDVLALSVSTPEHLHKIGLLDRVTNDTESDINYLLKMALEKIAFLPFGYLVDQWRWGVFSGRTPPSRYNFDWWYLRTKYQGICPPVTRNETHFDAGAKFHVPNVTPYIRYFVSFVLQFQFHEALCKEAGYEGPLHQCDIYRSTKAGAKLRKVLQAGSSRPWQEVLKDMVGLDALDAQPLLKYFQPVTQWLQEQNQQNGEVLGWPEYQWHPPLPDNYPEGIDLVTDEAEASKFVEEYDRTSQVVWNEYAEANWNYNTNITTETSKILLQKNMQIANHTLKYGTQARKFDVNQLQNTTIKRIIKKVQDLERAALPAQELEEYNKILLDMETTYSVATVCHPNGSCLQLEPDLTNVMATSRKYEDLLWAWEGWRDKAGRAILQFYPKYVELINQAARLNGYVDAGDSWRSMYETPSLEQDLERLFQELQPLYLNLHAYVRRALHRHYGAQHINLEGPIPAHLLGNMWAQTWSNIYDLVVPFPSAPSMDTTEAMLKQGWTPRRMFKEADDFFTSLGLLPVPPEFWNKSMLEKPTDGREVVCHASAWDFYNGKDFRIKQCTTVNLEDLVVAHHEMGHIQYFMQYKDLPVALREGANPGFHEAIGDVLALSVSTPKHLHSLNLLSSEGGSDEHDINFLMKMALDKIAFIPFSYLVDQWRWRVFDGSITKENYNQEWWSLRLKYQGLCPPVPRTQGDFDPGAKFHIPSSVPYIRYFVSFIIQFQFHEALCQAAGHTGPLHKCDIYQSKEAGQRLATAMKLGFSRPWPEAMQLITGQPNMSASAMLSYFKPLLDWLRTENELHGEKLGWPQYNWTPNSARSEGPLPDSGRVSFLGLDLDAQQARVGQWL
Regarding B2, the “Aβ cleavage (ELISA-based assay of intact Aβ)” value was “ECE2 and ACE were completely inactive on both Aβ isoforms” with Aβ(1-40), P05067; “ECE2 and ACE were completely inactive on both Aβ isoforms” with Aβ(1-42), P05067.
